{"source": "patent US6410226", "proteins": {"B1": {"name": "hsREC2 (human REC2, ATP-dependent homologous pairing protein) (protein)", "chain": "MGSKKLKRVGLSQELCDRLSRHQILTCQDFLCLSPLELMKVTGLSYRGVHELLCMVSRACAPKMQTAYGIKAQRSADFSPAFLSTTLSALDEALHGGVACGSLTEITGPPGCGKTQFCIMMSILATLPTNMGGLEGAVVYIDTESAFSAERLVEIAESRFPRYFNTEEKLLLTSSKVHLYRELTCDEVLQRIESLEEEIISKGIKLVILDSVASVVRKEFDAQLQGNLKERNKFLAREASSLKYLAEEFSIPVILTNQITTHLSGALASQADLVSPADDLSLSEGTSGSSCVIAALGNTWSHSVNTRLILQYLDSERRQILIAKSPLAPFTSFVYTIKEEGLVLQAYGNS"}}, "data": [{"protein": "B1", "values": [{"measurement": "Hill coefficient of ATP hydrolysis (ATPase activity) at ATP concentrations of <100 µM", "value": "the Hill coefficient (1.8)"}]}]}
